This note sets out measurements from patent US20240295570A1, “METHOD FOR IDENTIFYING CANDIDATE THERAPEUTICS FOR ALZHEIMER'S DISEASE” (UNIVERSITY OF SOUTH FLORIDA, priority 2023, published 2024).

For one experiment, the target named is T1, BIN1 SH3 domain (Homo sapiens, UniProt O00499).
T1 construct: 6x His with TEV cleavage site (N, cleaved yes); made in house; host or cells: E. coli BL21 (DE3), pET28a(+)
T1 sequence (O00499 513-593): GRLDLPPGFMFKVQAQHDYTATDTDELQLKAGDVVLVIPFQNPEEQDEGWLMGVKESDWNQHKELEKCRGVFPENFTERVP
In words: Surface plasmon resonance (SPR) binding to immobilised BIN1 SH3 domain. As to conditions: triplicate, ligand BIN1 SH3 domain 50 μg/mL, analyte serial dilution 75-0.6 μM, dissociation time 120 seconds, 25° C., running buffer 1×PBS-P+, read-out: dissociation constant (KD). The procedure: Next, the inventors determined the dissociation constant (KD) for the peptide and full-length 0N4R WT Tau by surface plasmon resonance (SPR). The experiment was run in triplicate with BIN1 SH3 domain 50 μg/mL as the ligand, and FL 0N4R WT Tau in serial dilution from 75-0.6 μM as the analyte. Flow rate—30 μL/minute, contact time—30 seconds, dissociation time—120 seconds, temperature—25° C., running buffer—1×PBS-P+. A dissociation constant of 1.136 μM was determined.
Then, the dissociation constants for nine compounds identified through the molecular docking analysis were assessed. […] Therefore, compound #5 is a candidate compound for further testing in Alzheimer's disease. Ligand-BIN1 SH3 domain 50 μg/mL. Analyte—compounds 1-2 (serial dilutions from 500-3.12 μM), #4 & 6-9 (250-3.12 μM) and #5 (dilutions from 100-3.12 μM). Flow rate—30 μL/minute, contact time—30 seconds, dissociation time—300 seconds, temperature—25° C., running buffer—1.05×PBS-P+ with 5% DMSO. Solvent correction for 5% DMSO was calculated and mathematically subtracted from each compound analysis.
Background: Surface plasmon resonance follows binding to a sensor surface in real time, without labels.

In experiment [1] the target is T2, full-length 0N4R WT Tau (UniProt P10636-6 2-383, limits assumed).
T2 construct: mature; also called FL 0N4R WT Tau
The experiment can be described thus: SPR, steady-state affinity fit (replicate 3 of 3); BIN1 SH3 domain as immobilised ligand, FL 0N4R WT Tau as analyte 0.6-75 µM, 25 °C, PBS-P+. As to the method: (§1) Next, the inventors determined the dissociation constant (KD) for the peptide and full-length 0N4R WT Tau by surface plasmon resonance (SPR). The experiment was run in triplicate with BIN1 SH3 domain 50 μg/mL as the ligand, and FL 0N4R WT Tau in serial dilution from 75-0.6 μM as the analyte. Flow rate—30 μL/minute, contact time—30 seconds, dissociation time—120 seconds, temperature—25° C., running buffer—1×PBS-P+.

Experiment [2] has as its target T2, full-length 0N4R WT Tau. The experiment can be described thus: SPR, run in triplicate; BIN1 SH3 domain (50 µg/mL) as immobilised ligand, FL 0N4R WT Tau in serial dilution from 75-0.6 µM as analyte; 25° C., 1×PBS-P+. The procedure: as §1
For experiment [3], the target named is T2, full-length 0N4R WT Tau. The experiment can be described thus: SPR, steady-state affinity fit (replicate 2 of 3); BIN1 SH3 domain as immobilised ligand, FL 0N4R WT Tau as analyte 0.6-75 µM, 25 °C, PBS-P+. As to the method: as §1
Experiment [4] addresses T2, full-length 0N4R WT Tau. The experiment can be described thus: SPR, steady-state affinity fit (replicate 1 of 3); BIN1 SH3 domain as immobilised ligand, FL 0N4R WT Tau as analyte 0.6-75 µM, 25 °C, PBS-P+. The procedure:
as §1

T2 sequence (P10636 other isoform, or with tags, fused parts or gaps limits assumed): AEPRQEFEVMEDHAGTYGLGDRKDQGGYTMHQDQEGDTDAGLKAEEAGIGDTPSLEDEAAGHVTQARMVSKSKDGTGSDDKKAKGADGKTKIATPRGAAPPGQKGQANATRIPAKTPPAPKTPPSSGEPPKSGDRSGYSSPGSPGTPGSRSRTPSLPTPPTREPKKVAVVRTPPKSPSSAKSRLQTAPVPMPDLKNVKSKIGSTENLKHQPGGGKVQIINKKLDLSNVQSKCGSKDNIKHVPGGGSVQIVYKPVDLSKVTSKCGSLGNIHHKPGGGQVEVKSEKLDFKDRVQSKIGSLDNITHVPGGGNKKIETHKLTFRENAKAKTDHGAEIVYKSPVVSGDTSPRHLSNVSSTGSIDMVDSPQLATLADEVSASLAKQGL

For orientation: Kd means the equilibrium constant for the complex coming apart. Regarding “FL 0N4R WT Tau: full-length 0N4R wild-type Tau protein used as analyte in SPR”, the equilibrium dissociation constant (Kd) with BIN1 SH3 domain turned out to be 1140 nM.

B1: human BIN1 SH3 domain (untagged) (other)
chain: GRLDLPPGFMFKVQAQHDYTATDTDELQLKAGDVVLVIPFQNPEEQDEGWLMGVKESDWNQHKELEKCRGVFPENFTERVP
notes: also called native BIN1 SH3 domain; the peptide
On to B1, for which the Kd turned out to be 1080 nM with full-length 0N4R WT Tau [1], 1140 nM in the experiment with full-length 0N4R WT Tau [2], 1300 nM with full-length 0N4R WT Tau [3] and 1030 nM with full-length 0N4R WT Tau [4].
